Data: publication PMC7984842, “Genetic disruption of WASHC4 drives endo-lysosomal dysfunction and cognitive-movement impairments in mice and humans” (eLife, 2021)

T1: SWIP-MUT-HA (human WASHC4 P1019R) (human, UniProt Q2M389 1-1173, P1019R)
T1 construct: SWIP (WASHC4), human, with the patients' variant c.3056C>G, p.Pro1019Arg, made by site-directed mutagenesis of pmCAG-SWIP-WT-HA; The mutation occurs in human patients (Ropers et al., 2011); also called SWIP^P1019R; MUT SWIP; source: HEK293T, transfected (pmCAG-SWIP-MUT-HA), in lysate
T1 sequence (looked up): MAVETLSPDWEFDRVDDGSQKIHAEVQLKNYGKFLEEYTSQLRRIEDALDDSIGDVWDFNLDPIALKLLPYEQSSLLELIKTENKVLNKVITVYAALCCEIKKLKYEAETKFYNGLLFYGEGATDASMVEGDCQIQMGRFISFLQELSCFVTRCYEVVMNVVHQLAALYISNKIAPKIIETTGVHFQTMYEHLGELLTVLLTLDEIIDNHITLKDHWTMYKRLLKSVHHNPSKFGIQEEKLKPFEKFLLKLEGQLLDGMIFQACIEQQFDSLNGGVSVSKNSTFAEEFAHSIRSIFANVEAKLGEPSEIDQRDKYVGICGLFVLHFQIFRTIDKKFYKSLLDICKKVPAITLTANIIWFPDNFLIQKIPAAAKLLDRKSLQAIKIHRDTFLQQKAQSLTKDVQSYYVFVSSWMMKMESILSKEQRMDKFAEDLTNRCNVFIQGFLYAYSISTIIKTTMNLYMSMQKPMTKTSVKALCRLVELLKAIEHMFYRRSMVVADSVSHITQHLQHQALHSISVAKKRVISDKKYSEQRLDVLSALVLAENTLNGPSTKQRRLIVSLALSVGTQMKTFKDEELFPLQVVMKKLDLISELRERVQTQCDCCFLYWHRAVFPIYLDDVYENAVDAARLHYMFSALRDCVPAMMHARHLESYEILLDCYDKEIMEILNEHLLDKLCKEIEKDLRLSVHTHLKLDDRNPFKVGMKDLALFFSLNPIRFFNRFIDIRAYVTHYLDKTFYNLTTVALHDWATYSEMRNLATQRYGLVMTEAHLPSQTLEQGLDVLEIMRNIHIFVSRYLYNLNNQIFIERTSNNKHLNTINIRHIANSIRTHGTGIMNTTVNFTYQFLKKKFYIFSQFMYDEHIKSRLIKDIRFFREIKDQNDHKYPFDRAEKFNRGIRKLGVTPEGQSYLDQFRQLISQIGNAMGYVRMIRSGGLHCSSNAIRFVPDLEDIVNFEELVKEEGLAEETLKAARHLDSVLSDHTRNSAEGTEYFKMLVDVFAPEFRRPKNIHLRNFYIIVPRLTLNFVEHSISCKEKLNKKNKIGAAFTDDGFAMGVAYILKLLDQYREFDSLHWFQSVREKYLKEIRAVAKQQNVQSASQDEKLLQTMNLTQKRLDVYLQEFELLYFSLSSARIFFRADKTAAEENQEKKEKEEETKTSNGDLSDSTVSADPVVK


Molecular target: T1, SWIP-MUT-HA (human WASHC4 P1019R)
Assay: co-IP; HEK293T transfected with SWIP-WT-HA or SWIP-MUT-HA for three days; lysis buffer 25 mM HEPES, 150 mM NaCl, 1 mM EDTA, 1% Nonidet P-40, pH 7.4; anti-HA agarose beads 2 hr at 4°C; blots for WASH1, Strumpellin and HA; band intensities normalised to WT
Settings: partners not purified

| amount co-immunoprecipitated, % of WT SWIP | Binder |
| --- | --- |
| 41.4 % of WT | WASH1 (WASHC1), human (natural protein, human (endogenous in HEK293T), UniProt A8K0Z3 1-465, looked up, WASH1 (WASHC1), endogenous in HEK293T cells, detected with an anti-WASH1 C-terminal antibody; Human cells carry several near-identical WASH paralogues; source: endogenous, HEK293T lysate) MTPVRMQHSLAGQTYAVPFIQPDLRREEAVQQMADALQYLQKVSGDIFSRISQQVEQSRSQVQAIGEKVSLAQAKIEKIKGSKKAIKVFSSAKYPAPGRLQEYGSIFTGAQDPGLQRRPRHRIQSKHRPLDERALQEKLKDFPVCVSTKPEPEDDAEEGLGGLPSNISSVSSLLLFNTTENLYKKYVFLDPLAGAVTKTHVMLGAETEEKLFDAPLSISKREQLEQQVPENYFYVPDLGQVPEIHVPSYLPDLPGIANDLMYSADLGPGIAPSAPGTIPELPTFHTEVAEPLKVDLQDGVLTPPPPPPPPPPAPEVLASAPPLPPSTAAPVGQGARQDDSSSSASPSVQGAPREVVDPSGGWATLLESIRQAGGIGKAKLRSMKERKLEKQQQKEQEQVRATSQGGHLMSDLFNKLVMRRKGISGKGPGAGEGPGGAFVRVSDSIPPLPPPQQPQAEEDEDDWES |
| 54.8 % of WT | Strumpellin (WASHC5), human (natural protein, human (endogenous in HEK293T), UniProt Q12768 1-1159, looked up, Strumpellin (WASHC5), endogenous in HEK293T cells, detected with an anti-Strumpellin antibody; source: endogenous, HEK293T lysate) MLDFLAENNLCGQAILRIVSCGNAIIAELLRLSEFIPAVFRLKDRADQQKYGDIIFDFSYFKGPELWESKLDAKPELQDLDEEFRENNIEIVTRFYLAFQSVHKYIVDLNRYLDDLNEGVYIQQTLETVLLNEDGKQLLCEALYLYGVMLLVIDQKIEGEVRERMLVSYYRYSAARSSADSNMDDICKLLRSTGYSSQPGAKRPSNYPESYFQRVPINESFISMVIGRLRSDDIYNQVSAYPLPEHRSTALANQAAMLYVILYFEPSILHTHQAKMREIVDKYFPDNWVISIYMGITVNLVDAWEPYKAAKTALNNTLDLSNVREQASRYATVSERVHAQVQQFLKEGYLREEMVLDNIPKLLNCLRDCNVAIRWLMLHTADSACDPNNKRLRQIKDQILTDSRYNPRILFQLLLDTAQFEFILKEMFKQMLSEKQTKWEHYKKEGSERMTELADVFSGVKPLTRVEKNENLQAWFREISKQILSLNYDDSTAAGRKTVQLIQALEEVQEFHQLESNLQVCQFLADTRKFLHQMIRTINIKEEVLITMQIVGDLSFAWQLIDSFTSIMQESIRVNPSMVTKLRATFLKLASALDLPLLRINQANSPDLLSVSQYYSGELVSYVRKVLQIIPESMFTSLLKIIKLQTHDIIEVPTRLDKDKLRDYAQLGPRYEVAKLTHAISIFTEGILMMKTTLVGIIKVDPKQLLEDGIRKELVKRVAFALHRGLIFNPRAKPSELMPKLKELGATMDGFHRSFEYIQDYVNIYGLKIWQEEVSRIINYNVEQECNNFLRTKIQDWQSMYQSTHIPIPKFTPVDESVTFIGRLCREILRITDPKMTCHIDQLNTWYDMKTHQEVTSSRLFSEIQTTLGTFGLNGLDRLLCFMIVKELQNFLSMFQKIILRDRTVQDTLKTLMNAVSPLKSIVANSNKIYFSAIAKTQKIWTAYLEAIMKVGQMQILRQQIANELNYSCRFDSKHLAAALENLNKALLADIEAHYQDPSLPYPKEDNTLLYEITAYLEAAGIHNPLNKIYITTKRLPYFPIVNFLFLIAQLPKLQYNKNLGMVCRKPTDPVDWPPLVLGLLTLLKQFHSRYTEQFLALIGQFICSTVEQCTSQKIPEIPADVVGALLFLEDYVRYTKLPRRVAEAHVPNFIFDEFRTVL |
